These are literature values, as cited in article PMC6611644.

“And” between values parts separate entries of the source, which are not always exact repeats. Equal entries are not always repeated.

For orientation: Kd means the equilibrium constant for the complex coming apart.

For the data set, the target named is GPIbα (Homo sapiens) (UniProt P07359). Description: SPR.
Sequence of UniProt P07359 (P07359 17-306): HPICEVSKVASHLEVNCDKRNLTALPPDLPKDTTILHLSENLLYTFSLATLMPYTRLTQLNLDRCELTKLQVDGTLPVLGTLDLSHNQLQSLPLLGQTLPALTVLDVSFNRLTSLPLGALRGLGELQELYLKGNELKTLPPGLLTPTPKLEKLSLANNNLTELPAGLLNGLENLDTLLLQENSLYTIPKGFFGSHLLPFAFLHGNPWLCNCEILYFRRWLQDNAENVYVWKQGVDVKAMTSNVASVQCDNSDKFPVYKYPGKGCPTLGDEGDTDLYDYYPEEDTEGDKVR

Turning to GspB BR (from UniProt Q939N5), the Kd was 23.8 nM.
With Hsa BR (from UniProt A8AWU7), the Kd is 5.05 nM and 30.5 nM.
